Measurements as given in article PMC4529168, “Molecular Cloning, Heterologous Expression, and Functional Characterization of an NADPH-Cytochrome P450 Reductase Gene from Camptotheca acuminata, a Camptothecin-Producing Plant” (PLoS ONE, 2015).

System: T1, NC(=O)C1=CN([C@@H]2O[C@H](COP(=O)(O)OP(=O)(O)OC[C@H]3O[C@@H](n4cnc5c(N)ncnc54)[C@H](OP(=O)(O)O)[C@@H]3O)[C@@H](O)[C@H]2O)C=CC1
T1 construct: N-terminal 69 residues (membrane anchor) removed, His6-tag kept (probably N-terminal, 660 residues with tag), expressed in E. coli BL21(DE3), Ni-NTA purified
Experiment: purified protein
Type: biochemical, Camptotheca acuminata
Settings: 75 μM equine heart cytochrome c, 50 mM Tris-HCl pH 7.4, 25°C

Sequence of tCamCPR (Camptotheca acuminata) (chain, as listed by the source): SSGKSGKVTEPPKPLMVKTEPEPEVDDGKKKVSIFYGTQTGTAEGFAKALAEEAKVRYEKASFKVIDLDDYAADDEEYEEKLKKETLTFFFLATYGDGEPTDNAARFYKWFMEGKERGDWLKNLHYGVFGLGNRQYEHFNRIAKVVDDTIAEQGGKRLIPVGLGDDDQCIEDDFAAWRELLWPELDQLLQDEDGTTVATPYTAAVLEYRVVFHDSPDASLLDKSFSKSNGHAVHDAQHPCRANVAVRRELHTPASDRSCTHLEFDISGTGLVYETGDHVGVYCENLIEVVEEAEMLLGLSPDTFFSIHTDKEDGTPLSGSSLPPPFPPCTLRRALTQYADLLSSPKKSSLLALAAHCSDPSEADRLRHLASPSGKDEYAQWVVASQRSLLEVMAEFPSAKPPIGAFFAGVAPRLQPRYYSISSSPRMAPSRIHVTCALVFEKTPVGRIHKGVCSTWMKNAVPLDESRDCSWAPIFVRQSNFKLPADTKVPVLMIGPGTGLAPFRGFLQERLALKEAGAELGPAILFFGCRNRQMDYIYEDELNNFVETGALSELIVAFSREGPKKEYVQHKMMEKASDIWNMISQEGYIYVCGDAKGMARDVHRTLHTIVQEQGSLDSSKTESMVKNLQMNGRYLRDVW

Q: With tCamCPR (Camptotheca acuminata) as the substance, how does the Km read?
A: The Km was 18.7 ± 3.6 µM.
